T1: S. aureus GatD (Staphylococcus aureus, UniProt A0A0H2WZ38)
T1 construct: full-length, 243 residues; pOPINF vector, E. coli Lemo21(DE3), IMAC and SEC; crystallised without MurT; dimer in crystal non-physiological
T1 sequence (A0A0H2WZ38 1-243): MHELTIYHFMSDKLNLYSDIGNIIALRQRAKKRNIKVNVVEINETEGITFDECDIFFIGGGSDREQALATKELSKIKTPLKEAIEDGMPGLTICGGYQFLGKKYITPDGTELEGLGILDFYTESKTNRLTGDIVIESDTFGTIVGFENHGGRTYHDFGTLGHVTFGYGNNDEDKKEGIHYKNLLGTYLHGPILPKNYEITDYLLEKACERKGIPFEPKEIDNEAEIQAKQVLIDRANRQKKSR

T2: S. aureus GatD wt (from pET28a-murT-gatD-His6) (Staphylococcus aureus strain COL, UniProt A0A0H2WZ38 1-243)
T2 construct: GatD, glutamine amidotransferase, Staphylococcus aureus strain COL, 243 amino acids; coding region amplified with murT as the murT-gatD operon; also called glutamine amidotransferase GatD
T2 sequence (looked up): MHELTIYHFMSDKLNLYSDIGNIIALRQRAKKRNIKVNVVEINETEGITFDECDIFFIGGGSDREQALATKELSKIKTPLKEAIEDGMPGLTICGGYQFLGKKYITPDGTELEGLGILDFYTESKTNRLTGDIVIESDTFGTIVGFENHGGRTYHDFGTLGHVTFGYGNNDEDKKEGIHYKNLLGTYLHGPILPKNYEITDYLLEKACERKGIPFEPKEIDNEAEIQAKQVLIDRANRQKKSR

T3: S. aureus GatD H189A (from pET28a-murT-gatD-His6H189A) (Staphylococcus aureus strain COL, UniProt A0A0H2WZ38 1-243, H189A)
T3 sequence: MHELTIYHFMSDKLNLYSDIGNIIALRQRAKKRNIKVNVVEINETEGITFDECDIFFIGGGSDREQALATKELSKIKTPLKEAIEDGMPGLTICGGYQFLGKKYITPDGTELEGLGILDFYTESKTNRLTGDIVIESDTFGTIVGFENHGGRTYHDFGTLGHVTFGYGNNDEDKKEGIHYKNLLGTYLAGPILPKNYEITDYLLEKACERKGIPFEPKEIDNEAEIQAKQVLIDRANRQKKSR

T4: S. aureus GatD R128A (from pET28a-murT-gatD-His6R128A) (Staphylococcus aureus strain COL, UniProt A0A0H2WZ38 1-243, R128A)
T4 sequence: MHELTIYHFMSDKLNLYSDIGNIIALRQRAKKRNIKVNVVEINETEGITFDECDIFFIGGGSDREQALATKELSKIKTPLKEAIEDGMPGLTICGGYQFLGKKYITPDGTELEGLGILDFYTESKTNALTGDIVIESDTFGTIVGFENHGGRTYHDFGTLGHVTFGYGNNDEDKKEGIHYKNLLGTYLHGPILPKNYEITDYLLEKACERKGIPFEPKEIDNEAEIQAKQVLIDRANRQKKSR

T5: S. aureus GatD C94A (from pET28a-murT-gatD-His6C94A) (Staphylococcus aureus strain COL, UniProt A0A0H2WZ38 1-243, C94A)
T5 sequence: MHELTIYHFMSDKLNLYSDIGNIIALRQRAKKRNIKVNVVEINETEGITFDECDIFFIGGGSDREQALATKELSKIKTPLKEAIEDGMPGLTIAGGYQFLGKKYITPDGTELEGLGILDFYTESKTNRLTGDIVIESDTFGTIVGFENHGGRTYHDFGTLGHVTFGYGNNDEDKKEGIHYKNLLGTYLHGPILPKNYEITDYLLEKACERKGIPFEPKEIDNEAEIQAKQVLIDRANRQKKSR


Columns and labels:
S. aureus GatD = biological target: T1, S. aureus GatD; assay: X-ray crystal structure, […] Å; type: binding; details: co-purified glutamine; bound at surface of chain A to R128, outside the active site; MurT absent
[1] = biological target: S. aureus MurT-GatD complex (Staphylococcus aureus, UniProt A0A0H2WZ38); details: 875 µM Gln, 35 µM complex, no lipid II; 50 mM Tris-d11, 500 mM NaCl, 10 mM MgCl2, pH meter reading 7.9 in D2O, 293 K
[2] = biological target: T2, S. aureus GatD wt (from …); assay: co-purification (IMAC + SEC, SDS-PAGE); MurT and GatD-His6 co-expressed in E. coli from one plasmid; HisTrap then Superdex 200 in 100 mM Tris-HCl pH 8.2, 500 mM NaCl, 10 mM MgCl2, 5 mM 2-mercaptoethanol; molar ratio read from a 12% SDS-PAGE gel of the final samples; details: partners not purified
[3] = biological target: T3, S. aureus GatD H189A (from …); assay: co-purification (IMAC + SEC, SDS-PAGE); details: partners not purified
[4] = biological target: T4, S. aureus GatD R128A (from …); assay: co-purification (IMAC + SEC, SDS-PAGE); details: partners not purified
[5] = biological target: T5, S. aureus GatD C94A (from …); assay: co-purification (IMAC + SEC, SDS-PAGE); details: partners not purified

| Molecule | X-ray crystal structure, 1.85 Å (S. aureus GatD) | 1H-NMR glutaminase assay (Gln to Glu) [1] | stoichiometry N [2] | stoichiometry N [3] | stoichiometry N [4] | stoichiometry N [5] |
| --- | --- | --- | --- | --- | --- | --- |
| NC(=O)CC[C@H](N)C(=O)O [glutamine] | S. aureus GatD crystallized in the presence of its substrate, glutamine | MurT-GatD wt can convert glutamine into glutamate with a first order rate constant | – | – | – | – |
| S. aureus MurT (enzyme, Staphylococcus aureus strain COL, UniProt A0A0H2WZQ7 1-437, looked up, MurT, Mur ligase family member of the MurT-GatD complex, Staphylococcus aureus strain COL; coding region amplified with gatD as the murT-gatD operon) MRQWTAIHLAKLARKASRAVGKRGTDLPGQIARKVDTDILRKLAEQVDDIVFISGTNGKTTTSNLIGHTLKANNIQIIHNNEGANMAAGITSAFIMQSTPKTKIAVIEIDEGSIPRVLKEVTPSMMVFTNFFRDQMDRFGEIDIMVNNIAETISNKGIKLLLNADDPFVSRLKIASDTIVYYGMKAHAHEFEQSTMNESRYCPNCGRLLQYDYIHYNQIGHYHCQCGFKREQAKYEISSFDVAPFLYLNINDEKYDMKIAGDFNAYNALAAYTVLRELGLNEQTIKNGFETYTSDNGRMQYFKKERKEAMINLAKNPAGMNASLSVGEQLEGEKVYVISLNDNAADGRDTSWIYDADFEKLSKQQIEAIIVTGTRAEELQLRLKLAEVEVPIIVERDIYKATAKTMDYKGFTVAIPNYTSLAPMLEQLNRSFEGGQS | – | – | 1 MurT:GatD molar ratio | 1 MurT:GatD molar ratio | 1 MurT:GatD molar ratio | 1 MurT:GatD molar ratio |
